Assays:
[1] = biological target: Glutamate decarboxylase (GAD) from Escherichia coli K12, produced in media supplemented with pyridoxine hydrochloride (GAD-V) (E. coli str. K12 substr. MG1655) (UniProt P69910); experiment: SEC; Superdex 200 10/300GL, 20 mM citric acid-Na2HPO4 buffer pH 6.5 with 0.15 mM PLP, 0.4 mL/min, calibrated with molecular weight standards; native molecular weight about 324 kDa
[2] = biological target: Glutamate decarboxylase (GAD) from Escherichia coli K12, produced without pyridoxine hydrochloride supplementation (GAD-C) (E. coli str. K12 substr. MG1655) (UniProt P69910); experiment: as above

stoichiometry N [1] | stoichiometry N [2] | Substance
6 |  | Glutamate decarboxylase (GAD) from Escherichia coli K12, produced in media supplemented with pyridoxine hydrochloride (GAD-V) (from UniProt P69910 1-466) (enzyme)
 | 6 | Glutamate decarboxylase (GAD) from Escherichia coli K12, produced without pyridoxine hydrochloride supplementation (GAD-C) (from UniProt P69910 1-466) (enzyme)

— publication PMC4954698
